# Results published in patent US20230220021A1 (UNIVERSITY OF COPENHAGEN, published 2023).
# [ ]: non-standard residue; d: D form.
# Target: T1, (7× His)-PSD-95-PDZ2 wild type (UniProt P78352 160-246)
# T1 construct: domain: PDZ2; recombinant from E. coli; also called PSD-95-PDZ2 WT; not shown: 7x His tag
# Test: FP competition
# T1 sequence (P78352 160-246): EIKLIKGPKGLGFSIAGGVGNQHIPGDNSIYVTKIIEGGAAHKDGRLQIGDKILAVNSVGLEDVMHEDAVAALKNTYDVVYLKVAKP
Binder,Ki [nM],Relative Ki (Ki mut/Ki WT)
cyclo(THLETTFTGDGTPKTIRVRQ[dP]GQ) (SMILES CC[C@H](C)[C@@H]1NC(=O)[C@H]([C@@H](C)O)NC(=O)[C@H](CCCCN)NC(=O)[C@@H]2CCCN2C(=O)[C@H]([C@@H](C)O)NC(=O)CNC(=O)[C@H](CC(=O)O)NC(=O)CNC(=O)[C@H]([C@@H](C)O)NC(=O)[C@H](Cc2ccccc2)NC(=O)[C@H]([C@@H](C)O)NC(=O)[C@H]([C@@H](C)O)NC(=O)[C@H](CCC(=O)O)NC(=O)[C@H](CC(C)C)NC(=O)[C@H](Cc2c[nH]cn2)NC(=O)[C@H]([C@@H](C)O)NC(=O)[C@H](CCC(N)=O)NC(=O)CNC(=O)[C@H]2CCCN2C(=O)[C@H](CCC(N)=O)NC(=O)[C@H](CCCNC(=N)N)NC(=O)[C@H](C(C)C)NC(=O)[C@H](CCCNC(=N)N)NC1=O) [cyclic nNOS β-hairpin peptide T123R],1590,1.06
cyclo(THLETTFTGDGTPKTIRVYQ[dP]GQ) (SMILES CC[C@H](C)[C@@H]1NC(=O)[C@H]([C@@H](C)O)NC(=O)[C@H](CCCCN)NC(=O)[C@@H]2CCCN2C(=O)[C@H]([C@@H](C)O)NC(=O)CNC(=O)[C@H](CC(=O)O)NC(=O)CNC(=O)[C@H]([C@@H](C)O)NC(=O)[C@H](Cc2ccccc2)NC(=O)[C@H]([C@@H](C)O)NC(=O)[C@H]([C@@H](C)O)NC(=O)[C@H](CCC(=O)O)NC(=O)[C@H](CC(C)C)NC(=O)[C@H](Cc2c[nH]cn2)NC(=O)[C@H]([C@@H](C)O)NC(=O)[C@H](CCC(N)=O)NC(=O)CNC(=O)[C@H]2CCCN2C(=O)[C@H](CCC(N)=O)NC(=O)[C@H](Cc2ccc(O)cc2)NC(=O)[C@H](C(C)C)NC(=O)[C@H](CCCNC(=N)N)NC1=O) [cyclic nNOS β-hairpin peptide T123Y],1870,1.25
cyclo(THLETTFTGDGTPKTIRFTQ[dP]GQ) (SMILES CC[C@H](C)[C@@H]1NC(=O)[C@H]([C@@H](C)O)NC(=O)[C@H](CCCCN)NC(=O)[C@@H]2CCCN2C(=O)[C@H]([C@@H](C)O)NC(=O)CNC(=O)[C@H](CC(=O)O)NC(=O)CNC(=O)[C@H]([C@@H](C)O)NC(=O)[C@H](Cc2ccccc2)NC(=O)[C@H]([C@@H](C)O)NC(=O)[C@H]([C@@H](C)O)NC(=O)[C@H](CCC(=O)O)NC(=O)[C@H](CC(C)C)NC(=O)[C@H](Cc2c[nH]cn2)NC(=O)[C@H]([C@@H](C)O)NC(=O)[C@H](CCC(N)=O)NC(=O)CNC(=O)[C@H]2CCCN2C(=O)[C@H](CCC(N)=O)NC(=O)[C@H]([C@@H](C)O)NC(=O)[C@H](Cc2ccccc2)NC(=O)[C@H](CCCNC(=N)N)NC1=O) [cyclic nNOS β-hairpin peptide V122F],1340,0.89
cyclo(THLETTFTGDGTPKTIRRTQ[dP]GQ) (SMILES CC[C@H](C)[C@@H]1NC(=O)[C@H]([C@@H](C)O)NC(=O)[C@H](CCCCN)NC(=O)[C@@H]2CCCN2C(=O)[C@H]([C@@H](C)O)NC(=O)CNC(=O)[C@H](CC(=O)O)NC(=O)CNC(=O)[C@H]([C@@H](C)O)NC(=O)[C@H](Cc2ccccc2)NC(=O)[C@H]([C@@H](C)O)NC(=O)[C@H]([C@@H](C)O)NC(=O)[C@H](CCC(=O)O)NC(=O)[C@H](CC(C)C)NC(=O)[C@H](Cc2c[nH]cn2)NC(=O)[C@H]([C@@H](C)O)NC(=O)[C@H](CCC(N)=O)NC(=O)CNC(=O)[C@H]2CCCN2C(=O)[C@H](CCC(N)=O)NC(=O)[C@H]([C@@H](C)O)NC(=O)[C@H](CCCNC(=N)N)NC(=O)[C@H](CCCNC(=N)N)NC1=O) [cyclic nNOS β-hairpin peptide V122R],1690,1.13
cyclo(THLETTFTGDGTPKTIRYTQ[dP]GQ) (SMILES CC[C@H](C)[C@@H]1NC(=O)[C@H]([C@@H](C)O)NC(=O)[C@H](CCCCN)NC(=O)[C@@H]2CCCN2C(=O)[C@H]([C@@H](C)O)NC(=O)CNC(=O)[C@H](CC(=O)O)NC(=O)CNC(=O)[C@H]([C@@H](C)O)NC(=O)[C@H](Cc2ccccc2)NC(=O)[C@H]([C@@H](C)O)NC(=O)[C@H]([C@@H](C)O)NC(=O)[C@H](CCC(=O)O)NC(=O)[C@H](CC(C)C)NC(=O)[C@H](Cc2c[nH]cn2)NC(=O)[C@H]([C@@H](C)O)NC(=O)[C@H](CCC(N)=O)NC(=O)CNC(=O)[C@H]2CCCN2C(=O)[C@H](CCC(N)=O)NC(=O)[C@H]([C@@H](C)O)NC(=O)[C@H](Cc2ccc(O)cc2)NC(=O)[C@H](CCCNC(=N)N)NC1=O) [cyclic nNOS β-hairpin peptide V122Y],1270,0.85

# Target: T1, (7× His)-PSD-95-PDZ2 wild type
# Test: FP competition
# Remark: another data set of the same source
# Experimental: Fluorescence polarization (FP). FP assays were performed in a 384-well plate format. Fluorescence polarization was measured using a Safire 2 plate reader. The instrument Z-factor was optimized for each assay. The G-factor was calibrated to an initial milli polarization value of 20. […] Every measurement was performed in NaPI 50 mM, 50 mM NaCl and 1% BSA at pH 7.2, 25° C. […] The curves were done in triplicates. […] The mili polarization (mP) values were plotted as a function of peptide concentration and fitted to a sigmoidal dose-response curve using Prism software 8.0 (GraphPad). The Kᵢ values were calculated according to Nikolovska-Coleska Z. et al.⁴⁰⁻⁴¹
Binder,Ki [nM],Relative Ki (Ki mut/Ki WT)
cyclo(THLETTFTGAGTPKTIRVTQ[dP]GQ) (SMILES CC[C@H](C)[C@@H]1NC(=O)[C@H]([C@@H](C)O)NC(=O)[C@H](CCCCN)NC(=O)[C@@H]2CCCN2C(=O)[C@H]([C@@H](C)O)NC(=O)CNC(=O)[C@H](C)NC(=O)CNC(=O)[C@H]([C@@H](C)O)NC(=O)[C@H](Cc2ccccc2)NC(=O)[C@H]([C@@H](C)O)NC(=O)[C@H]([C@@H](C)O)NC(=O)[C@H](CCC(=O)O)NC(=O)[C@H](CC(C)C)NC(=O)[C@H](Cc2c[nH]cn2)NC(=O)[C@H]([C@@H](C)O)NC(=O)[C@H](CCC(N)=O)NC(=O)CNC(=O)[C@H]2CCCN2C(=O)[C@H](CCC(N)=O)NC(=O)[C@H]([C@@H](C)O)NC(=O)[C@H](C(C)C)NC(=O)[C@H](CCCNC(=N)N)NC1=O) [cyclic nNOS β-hairpin peptide D114A],3220,2.15
cyclo(THLATTFTGDGTPKTIRVTQ[dP]GQ) (SMILES CC[C@H](C)[C@@H]1NC(=O)[C@H]([C@@H](C)O)NC(=O)[C@H](CCCCN)NC(=O)[C@@H]2CCCN2C(=O)[C@H]([C@@H](C)O)NC(=O)CNC(=O)[C@H](CC(=O)O)NC(=O)CNC(=O)[C@H]([C@@H](C)O)NC(=O)[C@H](Cc2ccccc2)NC(=O)[C@H]([C@@H](C)O)NC(=O)[C@H]([C@@H](C)O)NC(=O)[C@H](C)NC(=O)[C@H](CC(C)C)NC(=O)[C@H](Cc2c[nH]cn2)NC(=O)[C@H]([C@@H](C)O)NC(=O)[C@H](CCC(N)=O)NC(=O)CNC(=O)[C@H]2CCCN2C(=O)[C@H](CCC(N)=O)NC(=O)[C@H]([C@@H](C)O)NC(=O)[C@H](C(C)C)NC(=O)[C@H](CCCNC(=N)N)NC1=O) [cyclic nNOS β-hairpin peptide E108A],21200,14.1
cyclo(THLETTFTADGTPKTIRVTQ[dP]GQ) (SMILES CC[C@H](C)[C@@H]1NC(=O)[C@H]([C@@H](C)O)NC(=O)[C@H](CCCCN)NC(=O)[C@@H]2CCCN2C(=O)[C@H]([C@@H](C)O)NC(=O)CNC(=O)[C@H](CC(=O)O)NC(=O)[C@H](C)NC(=O)[C@H]([C@@H](C)O)NC(=O)[C@H](Cc2ccccc2)NC(=O)[C@H]([C@@H](C)O)NC(=O)[C@H]([C@@H](C)O)NC(=O)[C@H](CCC(=O)O)NC(=O)[C@H](CC(C)C)NC(=O)[C@H](Cc2c[nH]cn2)NC(=O)[C@H]([C@@H](C)O)NC(=O)[C@H](CCC(N)=O)NC(=O)CNC(=O)[C@H]2CCCN2C(=O)[C@H](CCC(N)=O)NC(=O)[C@H]([C@@H](C)O)NC(=O)[C@H](C(C)C)NC(=O)[C@H](CCCNC(=N)N)NC1=O) [cyclic nNOS β-hairpin peptide G113A],4550,3.03
cyclo(TALETTFTGDGTPKTIRVTQ[dP]GQ) (SMILES CC[C@H](C)[C@@H]1NC(=O)[C@H]([C@@H](C)O)NC(=O)[C@H](CCCCN)NC(=O)[C@@H]2CCCN2C(=O)[C@H]([C@@H](C)O)NC(=O)CNC(=O)[C@H](CC(=O)O)NC(=O)CNC(=O)[C@H]([C@@H](C)O)NC(=O)[C@H](Cc2ccccc2)NC(=O)[C@H]([C@@H](C)O)NC(=O)[C@H]([C@@H](C)O)NC(=O)[C@H](CCC(=O)O)NC(=O)[C@H](CC(C)C)NC(=O)[C@H](C)NC(=O)[C@H]([C@@H](C)O)NC(=O)[C@H](CCC(N)=O)NC(=O)CNC(=O)[C@H]2CCCN2C(=O)[C@H](CCC(N)=O)NC(=O)[C@H]([C@@H](C)O)NC(=O)[C@H](C(C)C)NC(=O)[C@H](CCCNC(=N)N)NC1=O) [cyclic nNOS β-hairpin peptide H106A],2060,1.37
cyclo(THLETTFTGDGTPKTARVTQ[dP]GQ) (SMILES CC(C)C[C@@H]1NC(=O)[C@H](Cc2c[nH]cn2)NC(=O)[C@H]([C@@H](C)O)NC(=O)[C@H](CCC(N)=O)NC(=O)CNC(=O)[C@H]2CCCN2C(=O)[C@H](CCC(N)=O)NC(=O)[C@H]([C@@H](C)O)NC(=O)[C@H](C(C)C)NC(=O)[C@H](CCCNC(=N)N)NC(=O)[C@H](C)NC(=O)[C@H]([C@@H](C)O)NC(=O)[C@H](CCCCN)NC(=O)[C@@H]2CCCN2C(=O)[C@H]([C@@H](C)O)NC(=O)CNC(=O)[C@H](CC(=O)O)NC(=O)CNC(=O)[C@H]([C@@H](C)O)NC(=O)[C@H](Cc2ccccc2)NC(=O)[C@H]([C@@H](C)O)NC(=O)[C@H]([C@@H](C)O)NC(=O)[C@H](CCC(=O)O)NC1=O) [cyclic nNOS β-hairpin peptide I120A],1760,1.17
cyclo(THLETTFTGDGTPATIRVTQ[dP]GQ) (SMILES CC[C@H](C)[C@@H]1NC(=O)[C@H]([C@@H](C)O)NC(=O)[C@H](C)NC(=O)[C@@H]2CCCN2C(=O)[C@H]([C@@H](C)O)NC(=O)CNC(=O)[C@H](CC(=O)O)NC(=O)CNC(=O)[C@H]([C@@H](C)O)NC(=O)[C@H](Cc2ccccc2)NC(=O)[C@H]([C@@H](C)O)NC(=O)[C@H]([C@@H](C)O)NC(=O)[C@H](CCC(=O)O)NC(=O)[C@H](CC(C)C)NC(=O)[C@H](Cc2c[nH]cn2)NC(=O)[C@H]([C@@H](C)O)NC(=O)[C@H](CCC(N)=O)NC(=O)CNC(=O)[C@H]2CCCN2C(=O)[C@H](CCC(N)=O)NC(=O)[C@H]([C@@H](C)O)NC(=O)[C@H](C(C)C)NC(=O)[C@H](CCCNC(=N)N)NC1=O) [cyclic nNOS β-hairpin peptide K118A],1430,0.95
